Source: the supplement of paper PMC10567573

B1: ATE1 (parent)
chain: DYFPSEDFYRCGYCKNESGSRSNG
B2: PPFIA4 (parent)
chain: YAGNLHESGVHGALLALDENFDHN

Variants of: B1
Assay: protein stability index of a GFP-peptide fusion (GPS, HEK-293T) (PSI 1-6); higher = more stable
Conditions: c terminus: a fixed tail appended
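Note: lentivirally expressed fusions sorted by FACS into six bins by GFP to DsRed ratio, PSI derived from sequencing read proportions per bin multiplied by bin number.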

Variant | protein stability index
R21M | 2.08
R21H | 2.19
R21A | 2.54
R21L | 1.58
Y2I | 2.09
Y2C | 2.82
Y2V | 2.18
S18W | 2.05
S18V | 2.17
S18H | 1.95
S18N | 1.35
S18P | 2.2
S18A | 2.67
N23M | 1.52
C14F | 3.44
C14R | 3.8
C14Y | 3.04
C14H | 4.16
C14L | 3.28
C11T | 4.55
C11K | 4.17
C11V | 3.73
C11G | 4.36
C11H | 4.4
C11N | 3.84
C11E | 4.92

Variant | protein stability index
C11L | 2.96
C11Q | 4.36
C11M | 4.12
C11F | 3.46
S22T | 1.82
S22W | 2.33
S22A | 1.85
S22D | 2.6
S22Q | 2.6
S22I | 2.54
S22G | 2.04
E6L | 1.85
E6V | 1.45
E6H | 2.17
E6F | 1.56
E6T | 2.94
Y13R | 2.23
Y13M | 3.8
Y13I | 2.91
E17A | 1.74
E17Y | 1.49
E17W | 1.78
E17M | 2.45
E17V | 1.4
E17L | 2.17
G24S | 1.62

Variant | protein stability index
G24W | 1.78
G24D | 2.26
G24C | 1.93
G24T | 2.35
S20D | 2.25
S20T | 1.88
S20G | 2.53
N16F | 1.62
G12W | 3.35
G12E | 3.04
G12D | 3.03
G12Y | 2.49
F8V | 3.1
F8N | 2.16
F8D | 2.44
F8G | 2.48
F8E | 3.77
S5Q | 2.41
S5V | 2.16
S5P | 2.32
S5G | 2.17
Y9C | 3.12
G19P | 2.57
G19M | 1.38
G19H | 2.03
D7M | 1.83

Variant | protein stability index
D7R | 1.93
P4L | 2.53
P4S | 3.09
P4K | 1.92
P4C | 2.08
P4N | 2.16
F3K | 2.44
F3V | 2.13
F3S | 2.83
D1F | 1.84
D1I | 1.23
D1W | 3.35
D1E | 1.65
D1Y | 3.1
K15Q | 2.65
K15F | 2.65
K15G | 1.95
K15P | 3.41
K15N | 2.28
R10H | 1.82
R10C | 1.43
R10P | 2.47
R10L | 1.69
R10D | 2.31

Variants of: B2
Assay: as above
Conditions: c terminus: a fixed tail appended

Variant | protein stability index
G3H | 2.92
G3W | 2.56
G3N | 2.98
G3V | 3.11
G3P | 2.29
G3S | 2.95
G3Q | 3.12
G3R | 2.72
G3A | 2.79
G3C | 2.64
G3F | 2.29
G3I | 2.81
G3K | 3.42
G3Y | 1.99
G3L | 3.73
G3D | 3.83
G3T | 2.69
G3E | 4.67
G3M | 3.55
N4M | 2.29
N4H | 2.73
N4K | 2.09
N4A | 2.48
N4G | 2.65

Variant | protein stability index
N4S | 1.87
N4I | 2.53
N4C | 2.03
N4V | 2.18
N4T | 2.23
N4Y | 2.2
N4D | 3.55
N4R | 1.93
N4E | 3.82
N4Q | 3.69
N4F | 1.75
N4W | 1.67
N4P | 2.77
N4L | 2.33
Y1L | 4.49
Y1D | 4.8
Y1P | 5.39
Y1Q | 4.64
Y1M | 4.81
Y1W | 3.77
Y1H | 4.95
Y1G | 5.06
Y1S | 5.03
Y1V | 4.85

Variant | protein stability index
Y1F | 2.04
Y1N | 4.81
Y1E | 5.05
Y1A | 4.8
Y1K | 4.5
Y1C | 3.94
Y1I | 3.86
Y1R | 3.7
Y1T | 4.26
L5N | 2.96
L5T | 2.84
L5Q | 2.94
L5K | 2.86
L5R | 3.11
L5M | 2.23
L5D | 3.71
L5Y | 1.82
L5A | 2.56
L5W | 3.46
L5I | 1.94
L5F | 2.02
L5C | 2.58
L5S | 2.72
L5V | 2.12

Variant | protein stability index
L5P | 2.94
L5E | 4.34
L5H | 2.38
L5G | 2.21
H11S | 2.9
H11F | 2.49
H11V | 1.88
H11K | 3.33
H11A | 3.06
H11Y | 2.35
H11N | 2.83
H11P | 2.57
H11D | 4.25
H11C | 1.22
H11Q | 3.59
H11L | 1.76
H11W | 3.06
H11E | 3.19
H11G | 3.35
H11T | 2.59
H11M | 1.87
H11I | 1.66
H11R | 2.46
S8R | 2.02

Variant | protein stability index
S8E | 3.28
S8I | 2.21
S8Q | 2.71
S8M | 2.19
S8Y | 2.28
S8P | 2.49
S8T | 3.26
S8W | 1.72
S8A | 2.51
S8H | 2.11
S8L | 1.97
S8K | 2.67
S8V | 2.48
S8D | 3.16
S8C | 2.39
S8G | 2.12
S8N | 2.33
S8F | 1.72
G9V | 2.98
G9S | 2.63
G9P | 3.59
G9E | 3.49
G9Q | 2.82
G9Y | 2.34

Variant | protein stability index
G9I | 1.49
G9H | 2.65
G9D | 3.69
G9A | 2.46
G9C | 2.05
G9N | 3.1
G9K | 2.68
G9W | 2.94
G9M | 3.23
G9F | 1.83
G9R | 2.31
G9L | 2.1
G9T | 2.9
G12P | 2.11
G12L | 2.73
G12S | 3.28
G12N | 3.68
G12A | 2.77
G12K | 2.97
G12V | 1.95
G12M | 2.59
G12F | 2.32
G12Q | 3.56
G12R | 2.74

Variant | protein stability index
G12E | 3.78
G12T | 3.22
G12W | 3.02
G12Y | 1.7
G12D | 3.74
G12I | 1.94
G12H | 2.71
G12C | 2.13
H6T | 2.83
H6S | 2.27
H6R | 1.92
H6I | 2.23
H6C | 2.92
H6F | 1.99
H6P | 2.98
H6Q | 2.19
H6A | 2.78
H6M | 2.09
H6D | 2.72
H6L | 2.01
H6G | 2.82
H6K | 2.24
H6N | 2.05
H6E | 3.7

Variant | protein stability index
H6Y | 1.88
H6V | 2.5
E7G | 2
E7I | 1.54
E7V | 1.93
E7T | 2.24
E7K | 1.52
E7P | 1.95
E7R | 1.44
E7Q | 2.13
E7W | 2.91
E7S | 2.58
E7C | 1.67
E7F | 2.77
E7D | 3.14
E7N | 1.81
E7H | 1.77
E7Y | 1.85
E7L | 2.34
E7M | 2.02
E7A | 1.9
A2E | 4.19
A2V | 1.45
A2T | 3.09

Variant | protein stability index
A2S | 3.31
A2C | 2.38
A2I | 2.12
A2R | 4.27
A2D | 4.38
A2Q | 3.23
A2L | 3.65
A2N | 4.32
A2G | 3.49
A2W | 3.26
A2H | 1.85
A2P | 3.96
A2K | 4.68
A2F | 3.84
A2Y | 3.07
A2M | 3.23
A13E | 4.13
A13G | 2.65
A13C | 2.21
A13D | 4.32
A13F | 1.73
V10L | 2.35
V10A | 3.11
V10W | 2.73

Variant | protein stability index
V10P | 2.94
V10C | 2.06
V10I | 2.23
V10F | 2.25
V10Q | 3.19
V10M | 1.79
V10S | 3.09
V10D | 4.04
V10N | 3.23
V10K | 2.97
V10G | 2.8
V10Y | 2.31
V10E | 4.11
V10T | 3.09
V10H | 2.7
V10R | 2.79
